Biological target: pIICASV-GP2(267–351) (not stated | CAS virus (CASV))
Assay: SEC

pIICASV-GP2(267–351) (domain or fragment)
stoichiometry N: 3
